In this test the target is complement component 9 (C9) (human). Put plainly: cryo-EM structure; monomeric C9 polymerised in solution by overnight incubation at 1 mg/ml and 37 °C; single-particle cryo-EM of soluble poly-C9, 22-fold symmetry applied during refinement, about 5,000 particles, 8 Å.

As usually defined, the stoichiometry N is a count of units in the complex or per binding partner. “complement component 9 (C9) (natural protein)” came in with a stoichiometry N of 22.
